Laboratory results from patent publication US11529425B2, “Immunoconjugates comprising signal regulatory protein alpha” (DINGFU BIOTARGET CO., LTD., priority 2017, dated 2022).

How the values were obtained:
[1] = tested on: mouse RBCs; assay: Mouse RBC binding, MC38 tumor cells mixed with 15-fold excess of mouse RBCs; conditions: MC38 cells with 15-fold excess of mouse RBCs, 20 μg/ml, FIG. 6g/6h
Protocol: Similarly, MC38 tumor cells were mixed with a 15-fold excess of mouse RBCs, and then incubated with 20 μg/ml, a-mPD-L1, mSIRPα-Fc, CV1-Fc, mPD-L1-CV1, mPD-L1-mSIRPα or isotype control (human IgG1) at 4° C. for 30 min. Then the cells were washed to remove unbound proteins and incubated with an anti-hlgG Fc gamma specific PE antibody at 4° C. for 20 min. The cells were analyzed by flow cytometry (Life Technology). The gate of erythrocytes was assessed by anti-mouse RBC antibody (abcam Cat #ab106101). In FIG. 6g, serial numbers of 1, 2, 3 and 4 correspond to isotype control (human IgG1), mSIRPα-Fc, a-mPD-L1 and mPD-L1-mSIRPα. In FIG. 6h, serial numbers of 1, 2, 3 and 4 correspond to isotype control (human IgG1), CV1-Fc, a-mPD-L1 and mPD-L1-CV1.

[2] = molecular target: T1, CD47-muFc (Homo sapiens, UniProt Q08722); assay: Binding kinetics by bio-layer inferometry (BLI), Octet K2
T1 construct: made in house; host or cells: transiently transfected FreeStyle 293F cells (HEK293)
Excerpt: The amino acid sequence of the human CD47 extracellular domain (i.e., the 19th residue to the 141th residue in Q08722) was obtained according to the amino acid sequence of human CD47 (Q08722) in the protein database Uniprot. According to the amino acid sequence of the constant region of murine immunoglobulin gamma1 (P01868) in the protein database Uniprot, the amino acid sequence of muFc (i.e., the 112th residue to the 213th residue in P01868) was obtained. The DNAworks Online Tool (helixweb.nih.gov) was used to design the corresponding coding DNA sequence to obtain the CD47-muFc fusion protein gene, and the DNA fragment was obtained by artificial synthesis. The synthetic gene sequences were cloned into commercial vector pcDNA4/myc-HisA (Invitrogen, V863-20) by Fermentas HindIII and EcoRI. The recombinant plasmids were then sequenced for confirmation, thereby obtaining the plasmid DNA of pcDNA4-CD47-muFc. The amino acid sequences of CD47-muFc is as set forth in SEQ ID NO: 61, and the polynucleotide sequence encoding it is as set forth in SEQ ID NO: 62.
Binding kinetics of a hu56di-SIRPα immunoconjugate or control antibodies (SIRPα-Fc IgG1 and AB6.12 IgG1) were determined by the bio-layer inferometry (BLI) method using Octet K2 system (FortéBio). All experiments were performed at 25° C. under a PBS buffer containing 0.5% BSA and 0.5% Tween 20, pH 7.2. CD47-muFc was immobilized onto AHC Biosensors, which were subsequently used in association (with hu56di-SIRPα, SIRPα-Fc IgG1 or AB6.12 IgG1) and dissociation measurements each performed for a time window of 40 seconds and 300 seconds, respectively. After the above steps, the subtracted binding interference data were applied to the calculations of binding constants using the FortéBio analysis software provided with the instrument.

[3] = tested on: A375 cell (expressing CD47) and A375-PD-L1 tumor cells (expressing both CD47 and PD-L1); assay: Tumor binding in excess erythrocyte antigen sink, flow cytometry; conditions: 15-fold excess of RBCs, FIG. 6a
Protocol: An important concern about CD47-based therapeutics is the expression of the target on the surface of erythrocyte, which has the potential to act as a large antigen sink and cause hematological toxicity. […] The binding of hu56di-SIRPα to tumor cell in excess human erythrocytes antigen sink was therefore assessed by flow cytometry. A375 cell (expressing CD47) and A375-PD-L1 tumor cells (expressing both CD47 and PD-L1) were mixed with a 15-fold excess of RBCs, and then incubated with 20 μg/ml hu56di-SIRPα, SIRPα-Fc IgG1 or AB6.12 IgG1 or isotype control (human IgG1) at 4° C. for 30 min. Then the cells were washed to remove unbound proteins and incubated with an anti-hlgG Fc gamma specific PE antibody at 4° C. for 20 min. The cells were analyzed by flow cytometry (Life Technology). The gate of erythrocytes was assessed by anti-human CD235a (eBiosciences Cat #12-9987-80).
Then the cells were washed to remove unbound proteins and incubated with an anti-hlgG Fc gamma specific PE antibody at 4° C. for 20 min. The cells were analyzed by flow cytometry (Life Technology). The gate of erythrocytes was assessed by anti-human CD235a (eBiosciences Cat #12-9987-80).

[4] = tested on: human erythrocytes (RBC); assay: RBC binding in tumor cell / 15-fold excess RBC mix, flow cytometry; conditions: tumor cells mixed with 15-fold excess of RBCs, 20 μg/ml, FIG. 6a-6e
[5] = tested on: RBC; assay: Binding to fresh RBC diluted 2500 times, flow cytometry; conditions: 20 μg ml^−1, FIG. 6f
Protocol: Similarly, fresh RBC cell was diluted 2500 times, then it was incubated with 20 μg ml^−1 isotype control (human IgG1), hu56di-SIRPα, hu56di-CV1, SIRPα-Fc IgG1 and AB6.12 IgG1, respectively. The results were shown in FIG. 6f, in which serial numbers of 1, 2, 3, 4 and 5 correspond to isotype control, hu56di-SIRPα, hu56di-CV1, SIRPα-Fc IgG1 and AB6.12 IgG1.

[6] = reported in treated animal; cited from earlier work
[7] = reported after being injected into human; cited from earlier work

T1 sequence (Q08722 with tags, fused parts or gaps): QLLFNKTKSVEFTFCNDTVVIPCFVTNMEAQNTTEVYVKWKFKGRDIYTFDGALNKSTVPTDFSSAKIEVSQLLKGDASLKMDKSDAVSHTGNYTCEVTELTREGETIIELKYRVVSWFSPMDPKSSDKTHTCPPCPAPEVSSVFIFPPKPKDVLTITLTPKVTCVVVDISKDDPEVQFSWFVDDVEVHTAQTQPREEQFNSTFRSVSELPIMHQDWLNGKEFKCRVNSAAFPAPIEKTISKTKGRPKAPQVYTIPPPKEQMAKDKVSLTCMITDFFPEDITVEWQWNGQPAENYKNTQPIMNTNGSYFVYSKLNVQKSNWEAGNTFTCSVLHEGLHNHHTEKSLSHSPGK

Row | binding affinity to CD47 (comparison in words) ([2]; Table 6) | kon ([2]; association 40 seconds, 25° C.) [M⁻¹ s⁻¹] | kdis ([2]; dissociation 300 seconds, 25° C.) [s⁻¹] | Substance | binding to mouse RBC [1] | preference of binding, tumor cells versus RBC [3] | binding to RBC (MFI) [4] | binding to RBC [5] | anemia [6] | thrombocytopenia [7]
1 |  |  |  | mSIRPα-Fc: mouse SIRPα fused via linker to human IgG1-Fc, SEQ ID NO: 152, Group 18 | weaker binding to RBC than mPD-L1-CV1 |  |  |  |  | 
2 | comparable binding affinity to CD47 | 650000 | 0.00377 | SIRPα-Fc IgG1: reference homodimer: human SIRPα fused via peptide linker to human IgG1 Fc, SEQ ID NO: 69 |  | bound tumor cells and RBCs at the same time | bind to RBC | weaker binding to RBC than hu56di-CV1 and AB6.12 IgG1 | anemia has been reported | induced thrombocytopenia
